Test results from patent publication US6960343B2, “Toll/interleukin-1 receptor adapter protein (TIRAP)” (Yale University School of Medicine, priority 2001, dated 2005).

Assays:
TLR4 = biological target: T1, TLR4 (Homo sapiens, UniProt O00206); test: Co-immunoprecipitation with Myc-tagged TLR4 in 293T cells; assay type: binding; details: 293T cell lysates, anti-Flag immunoprecipitation
T1 construct: a Myc-tagged TLR4 deletion construct lacking the ectodomain (Myc TLR4 wt); Myc; expressed in transfected cells; host or cells: 293T cells
T1 sequence (O00206 653-839 limits assumed): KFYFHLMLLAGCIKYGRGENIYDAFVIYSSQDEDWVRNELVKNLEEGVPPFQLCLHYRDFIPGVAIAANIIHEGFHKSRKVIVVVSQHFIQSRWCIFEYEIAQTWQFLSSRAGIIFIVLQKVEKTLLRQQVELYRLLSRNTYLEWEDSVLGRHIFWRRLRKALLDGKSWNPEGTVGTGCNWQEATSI
Description: (§1) Cells were transfected in the presence (+) or absence (−) of constructs encoding a wild-type portion of TLR4 (TLR4 wt), a mutant derivative thereof (TLR4 mut), wild-type TIRAP (TIRAP), a mutant TIRAP containing a P125H mutation (TIRAP PH), or wild-type MyD88 (MyD88), wherein each construct further encodes a Myc, Flag, or hemaglutanin (HA) tag, as indicated. Antibodies used for immunoprecipitation (IP) or immunoblot (IB) are indicated to the left of each blot.
(§2) To obtain biochemical conformation for a role of TIRAP in the TLR4 signaling pathway, TIRAP-TLR4 protein interactions were evaluated using co-immunoprecipitation experiments. 293T cells were co-transfected with 4.5 μg of a Myc-tagged TLR4 deletion construct lacking the ectodomain (Myc TLR4 wt) or its mutant derivative (Myc TLR4 P714H) in the presence or absence of 1.5 μg of Flag-tagged TIRAP (Flag TIRAP) or its mutant derivative containing the P125H mutation (Flag TIRAP PH). […] Immunocomplexes were washed, separated by SDS-PAGE electrophoresis, and then analyzed by immunoblotting with either anti-myc antibody to look for co-immunoprecipitated TLR4 or anti-Flag antibody to confirm immunoprecipitation of Flag TIRAP or Flag TIRAP P125H. Total cell lysates (35 μg/sample) were likewise analyzed by SDS-PAGE and immunoblotting to confirm equivalent expression of the appropriate proteins in every sample. […]

MyD88 = biological target: T2, MyD88 (Homo sapiens, UniProt Q99836); test: Co-immunoprecipitation with Flag-tagged MyD88 in 293T cells; assay type: binding; details: 293T cell lysates
T2 construct: Flag; expressed in transfected cells; host or cells: 293T cells
Description: as §1
as §2, with “experiments.” for “experiments. 293T cells were co-transfected with 4.5 μg of a Myc-tagged TLR4 deletion construct lacking the ectodomain (Myc TLR4 wt) or its mutant derivative (Myc TLR4 P714H) in the presence or absence of 1.5 μg of Flag-tagged TIRAP (Flag TIRAP) or its mutant derivative containing the P125H mutation (Flag TIRAP PH).”
(§3) Similarly, the interaction between TIRAP and MyD88 was examined. […] Direct interactions between TIRAP and the TIR domain of TLR4 was also detected using in vitro glutathione S transferase (GST) pull-down assays.

IRAK = IRAK (Homo sapiens, UniProt P51617); test: Association with IRAK; assay type: binding
TIRAP = biological target: T3, TIRAP (Homo sapiens, UniProt P58753); test: Co-immunoprecipitation of HA TIRAP with Flag TIRAP (homodimerization); assay type: binding; details: 293T cell lysates
T3 construct: Flag; expressed in transfected cells; host or cells: 293T cells
Description: as §1
as §2, with “experiments.” for “experiments. 293T cells were co-transfected with 4.5 μg of a Myc-tagged TLR4 deletion construct lacking the ectodomain (Myc TLR4 wt) or its mutant derivative (Myc TLR4 P714H) in the presence or absence of 1.5 μg of Flag-tagged TIRAP (Flag TIRAP) or its mutant derivative containing the P125H mutation (Flag TIRAP PH).”
as §3

TIR domain of TLR4 = biological target: T4, TIR domain of TLR4 (Homo sapiens, UniProt O00206); test: In vitro glutathione S transferase (GST) pull-down assay; assay type: binding
T4 sequence (O00206 672-815 limits assumed): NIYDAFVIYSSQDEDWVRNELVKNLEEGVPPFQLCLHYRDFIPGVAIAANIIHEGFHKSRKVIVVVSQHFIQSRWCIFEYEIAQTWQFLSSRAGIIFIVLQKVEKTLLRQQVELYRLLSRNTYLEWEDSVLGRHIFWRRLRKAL
Description: Similarly, the interaction between TIRAP and MyD88 was examined. 293T cells were transfected with 1.5 μg of either HA-tagged TIRAP (HA TIRAP) alone or in combination with 1.5 μg of either Flag-tagged MyD88 (Flag MyD88), Flag-tagged TIRAP (Flag-TIRAP), or Flag-tagged TIRAP P125H (Flag TIRAP PH). Immunoprecipitation and analyses of immunocomplexes as well as total cell lysates were done as described above. […] Direct interactions between TIRAP and the TIR domain of TLR4 was also detected using in vitro glutathione S transferase (GST) pull-down assays.

PKR = test: Co-immunoprecipitation with HA PKR kinase dead mutant in 293T cells; assay type: binding; details: 293T cell lysates
Description: (§4) (A) Bone marrow-derived macrophages from either wild-type (WT) or MyD88-deficient (MyD88^−/−) mice were stimulated for the indicated time periods (minutes) with either LPS or CpG, and immunoblots were performed using an antibody that specifically recognizes phosphorylated PKR (PKR-P). B and C Cells were transfected with constructs encoding Flag-tagged TIRAP and either a construct encoding an HA-tagged kinase dead mutant of PKR (HA PKR KD) or p58, as indicated. Antibodies used for immunoprecipitation (IP) or immunoblot (IB) are indicated to the left of each blot, and arrows on the right show the location of the indicated proteins.
To determine whether PKR and TIRAP interact, lysates from 293T cells transfected with either 3.5 μg of an HA PKR kinase dead (KD) mutant […] 1.5 μg of Flag TIRAP were subjected to immunoprecipitation analyses as described above, followed by SDS-PAGE and immunoblotting with the indicated antibodies. The PKR KD mutant rather than wild type PKR was used because overexpressing PKR induces cell death. PKR did, in fact, co-immunoprecipitate with TIRAP (FIG. 4B), further supporting the link between PKR and TIRAP established above.

p58 = test: Co-immunoprecipitation with p58 in 293T cells; assay type: binding; details: 293T cell lysates
Description: as §4
(§5) Because TIRAP may not regulate PKR directly, the interaction between TIRAP and two other proteins, p58 and PACT, was analyzed. p58 is a tetratricopeptide repeat-containing protein that negatively regulates PKR activity (Lee 1994), and PACT is a dsRNA-binding domain-containing protein that activates PKR in response to cellular stress (Patel 19980). Lysates from 293T cells transfected with either p58-encoding vector (3.5 μg) or PACT (3.5 μg) and Flag TIRAP (1.5 μg) were subject to immunoprecipitation analyses followed by SDS-PAGE and immunoblotting with the indicated antibodies.

PACT = biological target: T5, PACT (Homo sapiens, UniProt O75569); test: Co-immunoprecipitation with PACT in 293T cells; assay type: binding; details: 293T cell lysates
T5 construct: expressed in transfected cells; host or cells: 293T cells
T5 sequence (O75569 1-313): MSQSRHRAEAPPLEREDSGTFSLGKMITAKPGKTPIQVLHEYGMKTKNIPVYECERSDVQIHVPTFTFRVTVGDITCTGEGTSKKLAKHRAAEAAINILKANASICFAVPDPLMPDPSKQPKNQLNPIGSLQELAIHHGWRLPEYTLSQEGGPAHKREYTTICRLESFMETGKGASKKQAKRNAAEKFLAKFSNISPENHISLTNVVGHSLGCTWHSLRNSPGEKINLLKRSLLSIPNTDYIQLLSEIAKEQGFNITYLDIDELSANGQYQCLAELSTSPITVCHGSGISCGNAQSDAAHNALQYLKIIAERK
Description: as §5

NF-κB promoter = test: NF-κB-dependent luciferase reporter assay, 293T cells co-transfected with TIRAP constructs; details: 2.0 μg construct, 24 h post-transfection
Description: To determine the effect of various TIRAP constructs on the promoter activity of NF-κB, 293T cells were co-transfected with 2.0 μg of the indicated TIRAP construct and 0.1 μg of an NF-κB-dependent luciferase reporter gene. pcDNA3 is an empty vector control; TIRAP is a vector encoding the full length TIRAP protein; TIRAP N is a vector encoding the N-terminal domain of TIRAP; TIRAP C is a vector encoding the C terminal domain of TIRAP; and TIRAP P125H is a vector encoding a mutant form of TIRAP containing a proline to histidine mutation at amino acid position 125. Cells were harvested 24 h post-transfection and lysed for analysis in a standard luciferase reporter assay. Luciferase activity is expressed as fold induction relative to mock transfected cells (FIG. 2A).

Sequence of IRAK (P51617 whole entry, species assumed): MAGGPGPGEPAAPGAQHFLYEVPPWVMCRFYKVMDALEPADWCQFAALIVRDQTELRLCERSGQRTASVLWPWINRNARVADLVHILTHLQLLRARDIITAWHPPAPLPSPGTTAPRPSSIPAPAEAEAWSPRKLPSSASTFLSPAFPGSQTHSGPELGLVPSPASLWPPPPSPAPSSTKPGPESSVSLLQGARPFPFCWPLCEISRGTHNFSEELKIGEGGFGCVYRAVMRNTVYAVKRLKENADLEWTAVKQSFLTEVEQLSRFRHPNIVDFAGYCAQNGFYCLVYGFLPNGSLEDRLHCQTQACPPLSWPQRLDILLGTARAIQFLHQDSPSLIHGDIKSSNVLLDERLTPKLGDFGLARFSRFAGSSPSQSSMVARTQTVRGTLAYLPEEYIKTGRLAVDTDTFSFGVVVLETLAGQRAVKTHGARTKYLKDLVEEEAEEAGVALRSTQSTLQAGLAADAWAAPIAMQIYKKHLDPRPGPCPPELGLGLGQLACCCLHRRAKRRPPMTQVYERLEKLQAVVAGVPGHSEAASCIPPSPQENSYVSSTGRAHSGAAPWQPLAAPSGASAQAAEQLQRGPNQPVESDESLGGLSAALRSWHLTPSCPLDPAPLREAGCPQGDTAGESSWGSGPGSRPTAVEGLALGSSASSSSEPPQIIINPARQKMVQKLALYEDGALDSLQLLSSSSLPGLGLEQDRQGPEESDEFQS
T3 sequence (P58753 1-235 isoform P58753-2): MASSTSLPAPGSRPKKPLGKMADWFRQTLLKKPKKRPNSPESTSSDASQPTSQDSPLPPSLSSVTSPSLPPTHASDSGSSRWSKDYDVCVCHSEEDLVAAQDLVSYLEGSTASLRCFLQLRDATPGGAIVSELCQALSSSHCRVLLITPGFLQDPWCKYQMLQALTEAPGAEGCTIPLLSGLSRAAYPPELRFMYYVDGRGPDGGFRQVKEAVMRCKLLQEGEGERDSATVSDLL
T2 sequence (Q99836 whole entry, species assumed): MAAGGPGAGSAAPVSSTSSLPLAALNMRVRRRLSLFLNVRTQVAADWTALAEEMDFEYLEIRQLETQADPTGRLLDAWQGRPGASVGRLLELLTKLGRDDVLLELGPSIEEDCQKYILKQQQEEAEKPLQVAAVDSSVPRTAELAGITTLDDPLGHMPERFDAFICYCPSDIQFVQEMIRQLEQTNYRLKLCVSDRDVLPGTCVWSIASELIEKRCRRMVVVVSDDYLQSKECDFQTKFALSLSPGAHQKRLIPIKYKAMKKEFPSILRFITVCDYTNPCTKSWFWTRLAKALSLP

co-immunoprecipitation with TLR4 (TLR4): co-immunoprecipitate
interaction with MyD88 (co-immunoprecipitation) (MyD88): does not interact
association with IRAK (IRAK): failed to associate
co-immunoprecipitation of TIRAP with itself (homodimerization) (TIRAP): can be co-immunoprecipitated with itself
direct interaction with the TIR domain of TLR4 (TIR domain of TLR4): detected
co-immunoprecipitation with PACT (PACT): immunoprecipitate
Substance: TIRAP: vector encoding the full length TIRAP protein (Toll/Interleukin-1 Receptor Adapter Protein)
co-immunoprecipitation with PKR (PKR): co-immunoprecipitate
co-immunoprecipitation with p58 (p58): immunoprecipitate
activation of the NF-κB promoter, luciferase activity as fold induction relative to mock transfected cells (NF-κB promoter): approximately 80 fold induction
